Assay [1] concerns the target CLDN1 F10x3 (GFP-CLDN1 with a triple FLAG epitope inserted in EL1 at position F10) (human) (UniProt O95832). The assay is described as follows: cell-based or functional assay.
The target of assay [2] is GFP-CLDN1 with a single FLAG epitope inserted in EL1 at position F6 (human) (UniProt O95832). The assay is described as follows: cell-based or functional assay.
In assay [3] the target is GFP-CLDN1 with a single FLAG epitope inserted in EL1 at position F8 (human) (UniProt O95832). The assay can be described thus: cell-based or functional assay.
Assay [4] addresses GFP-CLDN1 with a single FLAG epitope inserted in EL1 at position F9 (human) (UniProt O95832). The assay is described as follows: cell-based or functional assay.
The target of a further assay is human CD81 (human) (UniProt P60033). The assay can be described thus: cell-based or functional assay.
In assay [5] the target is T1, J6/JFH HCVcc (cell culture infectious HCV particles of the chimeric genotype 2a J6/JFH genome) (Hepatitis C virus genotype 2a, isolate …, UniProt P26660 192-383; P26660 384-750).
T1 construct: A whole enveloped virion, not a single protein
The assay is described as follows: HCVcc bound to transduced CHO cells 2 h at 37 C; cell-associated HCV RNA by real-time RT-PCR. In general terms: In qPCR the cycle at which signal appears reflects the starting amount.

“anti-FLAG M2 monoclonal antibody (Sigma)”: in assay [1], the time after the temperature shift at which antibody addition still gives half-maximal inhibition of HCVpp infection (synchronized infection) worked out at 73 min. For the same molecule, the reduction of HCVpp permissiveness (luciferase) of 293T cells expressing the clone, in the presence of antibody in assay [2] was < 90%; in assay [3], < 45%; in assay [4], < 62%. As to JS81 anti-CD81 antibody (BD Pharmingen), the time after the temperature shift at which antibody addition still gives half-maximal inhibition of HCVpp infection (synchronized infection) with human CD81 (human) came to 18 min.

B1: human CLDN1 (Claudin-1), wild type (receptor)
chain: MANAGLQLLGFILAFLGWIGAIVSTALPQWRIYSYAGDNIVTAQAMYEGLWMSCVSQSTGQIQCKVFDSLLNLSSTLQATRALMVVGILLGVIAIFVATVGMKCMKCLEDDEVQKMRMAVIGGAIFLLAGLAILVATAWYGNRIVQEFYDPMTPVNARYEFGQALFTGWAAASLCLLGGALLCCSCPRKTTSYPTPRPYPKPAPSSGKDYV
notes: also called wild-type CLDN1
For B1, the binding result in assay [5] is “no binding (tested: MOI ~0.5)”.

B2: human CD81 (receptor)
chain: MGVEGCTKCIKYLLFVFNFVFWLAGGVILGVALWLRHDPQTTNLLYLELGDKPAPNTFYVGIYILIAVGAVMMFVGFLGCYGAIQESQCLLGTFFTCLVILFACEVAAGIWGFVNKDQIAKDVKQFYDQALQQAVVDDDANNAKAVVKTFHETLDCCGSSTLTALTTSVLKNNLCPSGSNIISNLFKEDCHQKIDDLFSGKLYLIGIAAIVVAVIMIFEMILSMVLCCGIRNSSVY
notes: whole, on cells
In the case of B2, the binding result in assay [5] is listed as “no binding (tested: MOI ~0.5)”.

Source of the values: patent publication US20090098123A1 (ROCKEFELLER UNIVERSITY, published 2009).
